From US20030157712A1, “Methods for determining cell responses through EphB receptors” (priority 1997, published 2003)

Molecular target: endogenous EphB1 receptor of P19 cells (teratocarcinoma-derived, pluripotent murine cells) (murine) (UniProt Q8CBF3)
Assay: cell-based or functional assay

endogenous EphB1 receptor of P19 cells (teratocarcinoma-derived, pluripotent murine cells) (murine), sequence (Q8CBF3 18-984): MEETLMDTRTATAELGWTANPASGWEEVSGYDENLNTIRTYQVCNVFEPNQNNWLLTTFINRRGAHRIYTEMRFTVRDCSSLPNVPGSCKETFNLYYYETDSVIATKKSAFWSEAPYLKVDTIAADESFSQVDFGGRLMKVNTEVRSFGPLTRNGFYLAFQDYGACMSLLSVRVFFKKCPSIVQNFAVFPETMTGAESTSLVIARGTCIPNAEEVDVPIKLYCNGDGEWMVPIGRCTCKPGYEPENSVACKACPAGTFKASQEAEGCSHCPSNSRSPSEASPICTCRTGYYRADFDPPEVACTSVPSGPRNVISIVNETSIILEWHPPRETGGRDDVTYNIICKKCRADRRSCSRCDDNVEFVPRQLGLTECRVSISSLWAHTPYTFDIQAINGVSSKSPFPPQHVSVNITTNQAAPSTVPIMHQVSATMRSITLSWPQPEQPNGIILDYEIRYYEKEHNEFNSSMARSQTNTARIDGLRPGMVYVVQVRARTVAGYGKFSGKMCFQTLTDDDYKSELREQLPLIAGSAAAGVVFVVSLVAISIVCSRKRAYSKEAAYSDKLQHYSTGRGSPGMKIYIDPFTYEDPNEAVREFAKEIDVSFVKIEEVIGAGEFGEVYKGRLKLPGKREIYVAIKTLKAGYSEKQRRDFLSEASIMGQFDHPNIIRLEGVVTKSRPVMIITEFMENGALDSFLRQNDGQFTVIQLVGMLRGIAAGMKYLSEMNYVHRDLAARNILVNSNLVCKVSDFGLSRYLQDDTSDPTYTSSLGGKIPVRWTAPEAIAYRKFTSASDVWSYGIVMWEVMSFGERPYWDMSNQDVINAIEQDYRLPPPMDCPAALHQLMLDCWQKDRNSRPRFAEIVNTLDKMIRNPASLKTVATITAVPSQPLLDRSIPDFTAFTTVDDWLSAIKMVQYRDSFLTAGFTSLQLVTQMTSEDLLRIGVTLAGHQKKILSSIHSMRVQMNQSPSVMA

Q: How did the % attached P19 cells in wells preadsorbed with ligand and fibronectin turn out when “preclustered multimeric ephrin-B1/Fc (ephrin-B1/Fc + anti-Fc) (from UniProt P98172 28-237; P01857 99-330) (Fc fusion)” was run?
A: 60%
